US10155025B2, “Method for inhibiting or reducing transplant rejection by adminstration of interleukin-34” (INSERM (INSTITUT NATIONAL DE LA SANTÉ ET DE LA RECHERCHE …, priority 2014, dated 2018)

System: CD4+CD25- T cells stimulated with allogeneic pDCs
Assay: MLR: suppression of CFSE-labelled CD4+CD25- T cell proliferation in response to allogeneic pDCs
Format: cell-based, rat
Details: dose dependent, 0.1 to 2 μg/ml, 6 days of culture
Protocol: FIG. 3: Detection of IL-34 using an AAV-IL-34 and inhibition of allo-T cell responses. A. Supernatants of AAV-IL-34 or AAV-GFP-transduced cells were tested for suppression of CD4^+CD25^− T cell proliferation in response to allogeneic pDCs and analysed by flow cytometry for CFSE dilution after 5 days of culture. CD8^+ Tregs were used as positive control of suppression. n=3 in duplicates; Results are expressed as mean±SEM of normalized percentage of proliferation vs. proliferation in the absence of CD8^+ Tregs (100%). […] B. Serial dilution of sera from AAV-IL-34 or AAV-GFP-treated rats or naive animals were tested for suppression of CD4^+CD25^− T cell proliferation in response to allogeneic pDCs and analysed by flow cytometry for CFSE dilution after 5 days of culture. CD8^+ Tregs were used as positive control of suppression. n=3 in duplicates; Results are expressed as mean±SEM of normalized percentage of proliferation vs. proliferation in the absence of CD8^+ Tregs (100%). *, p<0.01; **, p<0.001; ***, p<0.0001 vs. sera from naïve animals.
FIG. 6: M-CSF mediated dose dependent suppression of anti-donor effector CD4^÷CD25^− T cells responses. (A) FACS Aria-sorted CD8^+CD45RC^low Tregs from spleen of naive or 120 days old AdCD40Ig-treated recipients (n=6) were analysed for M-CSF mRNA expression by quantitative RT-PCR. *p<0.05. […]

B1: M-CSF: M-CSF protein (ab56288, ABCAM), macrophage colony stimulating factor (protein, UniProt Q8JZQ0 33-566, looked up)
Macrophage colony-stimulating …: EVSEHCSHMIGNGHLQILQQLIDSQMETACLIEYKFVDQEQLDDPVCYLKKAFVLVQVIIEETMRFKDNTPNANATERLQELSMKLNSCFIKDYKEQNEACVQTYKESPLRLLEKIKNFFNETKNFLEKDWNIFSKNCNDSFAKCSSRDVVTKPDCNCLYPKATPSSDLASASPHQPPAPSMAPLADLAWDDSQRTEGSSLLPSDLPLRIEDPGSAKQRPPRSTCQTLESTEQPNHEDPQPHPSAGAPIPGVEDIIESSMGTNWVLEEASGEASEGFLTQERKFSPSNPVGGSIQAETDRPWARSASSPFPKLTEDQQPTNITDTPLTEVNPMRPTGQTLNNTPEKTDGSSTLREDQQEPRSPHFATLNPQRVGNSATPYAKLLPPKSHSWGIVLPLGELEGKKSTRDRRSPAELKGGPASEGAARPVAQSTRDRRSPAELKGGPASEGAARPVARFNSIPLTDTGSSIQDPQTSAFVFWVLGIILVLLAVGGLLFYSWKRRSHRDPRTLDSSVGRPEGSSLAQDEDRQVELPV
  suppression of CD4+CD25- T cells proliferation: up to 93.5%
